These results are taken from US20180208655A1 (VENTANA MEDICAL SYSTEMS, published 2018).

The target in the test is T1, human GPNMB (transmembrane glycoprotein NMB) (human, UniProt Q14956 23-572).
T1 construct: Endogenous GPNMB in human FFPE tissues and cells (IHC), A375 cell lysate (Western blot) and A375 cells (flow cytometry)
T1 sequence: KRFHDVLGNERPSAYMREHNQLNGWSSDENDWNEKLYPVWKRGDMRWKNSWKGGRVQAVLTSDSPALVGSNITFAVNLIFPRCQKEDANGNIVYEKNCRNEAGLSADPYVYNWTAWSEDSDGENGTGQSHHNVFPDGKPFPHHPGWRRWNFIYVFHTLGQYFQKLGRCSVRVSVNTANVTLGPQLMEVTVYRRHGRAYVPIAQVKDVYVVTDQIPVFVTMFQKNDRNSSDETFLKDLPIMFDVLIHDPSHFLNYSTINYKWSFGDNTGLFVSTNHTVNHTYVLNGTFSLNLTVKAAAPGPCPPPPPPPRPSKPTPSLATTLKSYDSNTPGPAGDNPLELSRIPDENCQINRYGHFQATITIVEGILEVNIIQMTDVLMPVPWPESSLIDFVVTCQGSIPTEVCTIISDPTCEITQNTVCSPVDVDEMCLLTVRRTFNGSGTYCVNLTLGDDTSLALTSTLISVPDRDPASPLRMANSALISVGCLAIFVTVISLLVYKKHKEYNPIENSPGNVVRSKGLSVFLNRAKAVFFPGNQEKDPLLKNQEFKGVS
Description: IHC screening of recombinantly expressed clones (after ELISA screening on the GPNMB antigen).

B1: rabbit anti-human GPNMB monoclonal antibody (SP299) (antibody, V domains shown)
VH: QSLEESGGGLVKPGGTLTLICTVSGIDLSTYGVIWVRQAPREGLEWIGFITRSGTTDYAAWANGRFTISKTSTTVDLKIASLTAADTATYFCARGGYRFNLWGHGTLVTVSS
VL: DPVMTQTPASVSEPVGGTVTIKCQASQSIYSYLAWYQQKPGQPPKLLIYKASSLESGVPSRLSGSGSGTEFTLTISDLECADAATYYCQGGYISTTVSFGYGFGGGTEVVVK
notes: also called anti-GPNMB antibody SP299; Anti-GPNMB monoclonal antibody (SP299)
Take B1: the binding result was “binds”.
